Binding signal and Kd data for four sequences are collected here from paper PMC4606517.

Data set [1] has as its target hAgo2 (single-molecule) (Homo sapiens) (UniProt Q9UKV8). Nature of the data set: single-molecule FRET. The settings on record: 5'-phosphate on guide, C6-amino-U in guide (nt 9) and in target (opposite guide nt 17), Filter binding: 30 mM Tris pH 8.0, 0.1 M K acetate, 2 mM Mg acetate, 0.5 mM TCEP, 0.005% NP-40, 0.01 mg/ml yeast tRNA, room temp, 45 min, 0.1 nM target ….
Data set [2] has as its target Ago2 wild type (Homo sapiens) (UniProt Q9UKV8). Description: filter binding. The conditions noted are these: 5'-phosphate on guide; target nt 9 (N) = inosine; Filter binding: 30 mM Tris pH 8.0, 0.1 M K acetate, 2 mM Mg acetate, 0.5 mM TCEP, 0.005% NP-40, 0.01 mg/ml yeast tRNA, room temp, 45 min, 0.1 nM target ….

Chain of hAgo2 (single-molecule) (Homo sapiens) (Q9UKV8 whole entry): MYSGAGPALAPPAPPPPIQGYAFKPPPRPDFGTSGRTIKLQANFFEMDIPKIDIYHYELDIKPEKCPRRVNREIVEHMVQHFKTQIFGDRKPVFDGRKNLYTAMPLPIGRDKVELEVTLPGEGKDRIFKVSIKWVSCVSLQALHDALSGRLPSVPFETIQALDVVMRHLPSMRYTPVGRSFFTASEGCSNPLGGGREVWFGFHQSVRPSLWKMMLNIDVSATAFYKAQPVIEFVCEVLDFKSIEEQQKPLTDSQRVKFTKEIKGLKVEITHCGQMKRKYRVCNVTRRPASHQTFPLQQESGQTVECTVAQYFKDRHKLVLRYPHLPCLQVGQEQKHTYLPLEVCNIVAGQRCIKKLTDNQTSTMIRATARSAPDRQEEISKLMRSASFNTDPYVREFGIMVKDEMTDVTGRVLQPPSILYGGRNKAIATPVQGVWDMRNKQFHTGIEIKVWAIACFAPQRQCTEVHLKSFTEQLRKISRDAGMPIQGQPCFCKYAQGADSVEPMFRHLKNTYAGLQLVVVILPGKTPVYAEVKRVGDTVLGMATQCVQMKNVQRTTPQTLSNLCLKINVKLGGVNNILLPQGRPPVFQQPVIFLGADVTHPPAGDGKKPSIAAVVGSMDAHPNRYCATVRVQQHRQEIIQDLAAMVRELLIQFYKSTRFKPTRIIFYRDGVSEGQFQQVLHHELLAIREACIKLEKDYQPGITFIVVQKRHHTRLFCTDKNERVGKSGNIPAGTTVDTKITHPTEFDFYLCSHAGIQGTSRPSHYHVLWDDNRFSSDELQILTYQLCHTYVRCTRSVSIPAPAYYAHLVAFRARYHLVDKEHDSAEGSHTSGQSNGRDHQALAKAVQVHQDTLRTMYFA
Chain of Ago2 wild type (Homo sapiens) (Q9UKV8 whole entry): as above

Sequence “UGAGGUAUUUUUUUUUUUUUUU / UUUUUUUUUUUUUUUUUUUUUUUUUUUUUUUACUACCUCUUUUUUUUUUUUUUUUUUUUUUUUUUUUUU [smFRET guide + t1U target]” gave a binding signal in data set [1] (dwell time, single exponential) of 1.64 s.

Take “UGAGGUAUUUUUUUUUUUUUUU / UUUUUUUUUUUUUUUUUUUUUUUUUUUUUUUACUACCUCAUUUUUUUUUUUUUUUUUUUUUUUUUUUUU [smFRET guide + t1A target]”: the binding signal in data set [1] (long dwell time (50.2%), short 1.61 ± 0.29 s (49.8%)) came out at 8.69 s.

Regarding “UUCACAUUGCCCAAGUCUCUU / CAAUGUGANAA [guide + t1I target]”, the dissociation constant (Kd) in data set [2] came out at 1.7 nM. This lies in the single-digit nanomolar range.

Turning to “UGAGGUAUUUUUUUUUUUUUUU / UUUUUUUUUUUUUUUUUUUUUUUUUUUUUUUACUACCUCAUUUUUUUUUUUUUUUUUUUUUUUUUUUUU [smFRET guide + t1DAP target]”, the binding signal in data set [1] (long dwell time (55.4%), short 1.97 ± 0.24 s (44.6%), target nt 40 = 2,6-diaminopurine (written A)) came out at 12.9 s.

As usually defined, the Kd is a measure of binding affinity in units of concentration. High values mean lower affinity, low ones higher affinity.
